According to patent US6214588:

System: GAL4(1-147)-VP16 (Saccharomyces cerevisiae / herpes simplex virus?)
Conditions: in vitro transcription stimulation with purified holoenzyme, factor a, TBP; 10-fold in nuclear extract

Substance pGAL4CG- (+GAL4 site template) has an activity of 5 fold.
